Measurements reported in article PMC10837013, “Synergistic induction of phytoalexins in Nicotiana attenuata by jasmonate and ethylene signaling mediated by NaWRKY70”.

Biological target: T1, NaWRKY70 (Nicotiana attenuata, UniProt A0A1J6IGI0 1-225)
T1 chain: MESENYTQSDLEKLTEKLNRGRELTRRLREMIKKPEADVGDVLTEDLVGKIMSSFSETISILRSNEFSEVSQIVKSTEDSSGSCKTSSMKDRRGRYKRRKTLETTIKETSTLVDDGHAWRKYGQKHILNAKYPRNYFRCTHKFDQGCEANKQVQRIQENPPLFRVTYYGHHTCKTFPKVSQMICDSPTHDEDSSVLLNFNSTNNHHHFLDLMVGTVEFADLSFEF
Test: EMSA; Chemiluminescence EMSA kit (Beyotime), manufacturer's protocol; buffer, salt, pH and temperature not stated
Conditions: protein: recombinant; tags: GST (pGEX-4T-1); chain copies: 0; label: biotin

B1: NaF6'H1 mProbe 1 (dsDNA)
DNA 1: GGTCTCTTTAGCTCTACCAACTATTC
DNA 2: GAATAGTTGGTAGAGCTAAAGAGACC
binding result: no binding
